The results in this text go back to publication PMC10104900 (The Journal of Clinical Investigation, 2023).

Assay [1] addresses T1, recombinant FL spike WT-6P (SARS-CoV-2 WT (Wuhan-Hu-1), UniProt P0DTC2, stabilised, biotin (EZ-Link Sulfo-NHS-Biotin) in the BLI experiments). Briefly: ELISA. The settings on record: both partners purified. (An ELISA detects its analyte on a solid surface through an enzyme-linked reagent.)
The target of assay [2] is T1, recombinant FL spike WT-6P. Briefly: BLI. The settings on record: both partners purified.
The target in assay [3] is recombinant FL spike P.1 Gamma, stabilized by 2P mutations (SARS-CoV-2, P.1 Gamma, strain).
Assay [4] addresses recombinant FL spike B.1.617.2 Delta, stabilized by 2P mutations (SARS-CoV-2, B.1.617.2 Delta, strain).
Assay [5] has as its target recombinant FL spike B.1.1.7 Alpha, stabilized by 2P mutations (SARS-CoV-2 B.1.1.7 Alpha, strain).
Assay [6] has as its target recombinant FL spike B.1.351 Beta, stabilized by 2P mutations (SARS-CoV-2, B.1.351 Beta, strain).

B1: S728-1157 IgG (antibody, V domains shown)
VH: EVQLVESGGGLVQPGGSLRLSCAASGLLVSRNYMNWVRQAPGKGLEWVSIIYSGGSTFYADSVEGRFTISRDESKNTLYLQMNSLRTDDTAVYYCARDLSDYGGIDCWGQGTLVTVSS
VL: YELTQPLSVSMALGQTARISCGGDNVGSQNVHWYQQRPGQAPVLVIYRDSNRPSGIPERFSGSKSGNTATLTISRAQAGDEADYYCQVWDSSTVAFGGGTKLTVL
notes: copies: 2 + 2
In the case of B1, the binding result in assay [1] is “binds”.

B2: S728-1157 Fab (Fab, V domains shown)
VH: B1 VH
VL: B1 VL
Take B2: the binding result in assay [2] was “binds”.

B3: S626-161 (antibody, V domains shown)
VH: QLQLQESGPGLVKPSEALSLTCTVSGGSISTSNYYWGWIRQPPGKGLEWIGSIYYRGGTHYNPSLKTRVTISVDTSKNQFSLKLSSVTAADTAVYYCARHTYFYDIVGAAVWEPFDIWGQGTMVTVSS
VL: not shown
On to B3, for which the binding result in assay [3], in assay [4], in assay [5] and in assay [6] was “binds” throughout.

B4: S451-1140 (antibody, V domains shown)
VH: EVQLVESGGGLVPPGGSLRLSCAASGFIFSNYAMTWVRQAPGKGLEWVSAISGGGGSTDYADSVKGRFTISRDNSKNTLYLQMNSLRAEDTAVYYCAKDLFGSGWSLFDNWGQGTLVTVS
VL: not shown
Turning to B4, the binding result in assay [3], in assay [4], in assay [5] and in assay [6] was “binds” throughout.
